The results in this text go back to IntAct's records for PubMed 18805096.

Sequences and labels used below:
B1: Cytoplasmic FMR1-interacting protein 1 (Homo sapiens), Q7L576 (parent)
chain: MAAQVTLEDALSNVDLLEELPLPDQQPCIEPPPSSLLYQPNFNTNFEDRNAFVTGIARYIEQATVHSSMNEMLEEGQEYAVMLYTWRSCSRAIPQVKCNEQPNRVEIYEKTVEVLEPEVTKLMNFMYFQRNAIERFCGEVRRLCHAERRKDFVSEAYLITLGKFINMFAVLDELKNMKCSVKNDHSAYKRAAQFLRKMADPQSIQESQNLSMFLANHNKITQSLQQQLEVISGYEELLADIVNLCVDYYENRMYLTPSEKHMLLKVMGFGLYLMDGSVSNIYKLDAKKRINLSKIDKYFKQLQVVPLFGDMQIELARYIKTSAHYEENKSRWTCTSSGSSPQYNICEQMIQIREDHMRFISELARYSNSEVVTGSGRQEAQKTDAEYRKLFDLALQGLQLLSQWSAHVMEVYSWKLVHPTDKYSNKDCPDSAEEYERATRYNYTSEEKFALVEVIAMIKGLQVLMGRMESVFNHAIRHTVYAALQDFSQVTLREPLRQAIKKKKNVIQSVLQAIRKTVCDWETGHEPFNDPALRGEKDPKSGFDIKVPRRAVGPSSTQLYMVRTMLESLIADKSGSKKTLRSSLEGPTILDIEKFHRESFFYTHLINFSETLQQCCDLSQLWFREFFLELTMGRRIQFPIEMSMPWILTDHILETKEASMMEYVLYSLDLYNDSAHYALTRFNKQFLYDEIEAEVNLCFDQFVYKLADQIFAYYKVMAGSLLLDKRLRSECKNQGATIHLPPSNRYETLLKQRHVQLLGRSIDLNRLITQRVSAAMYKSLELAIGRFESEDLTSIVELDGLLEINRMTHKLLSRYLTLDGFDAMFREANHNVSAPYGRITLHVFWELNYDFLPNYCYNGSTNRFVRTVLPFSQEFQRDKQPNAQPQYLHGSKALNLAYSSIYGSYRNFVGPPHFQVICRLLGYQGIAVVMEELLKVVKSLLQGTILQYVKTLMEVMPKICRLPRHEYGSPGILEFFHHQLKDIVEYAELKTVCFQNLREVGNAILFCLLIEQSLSLEEVCDLLHAAPFQNILPRVHVKEGERLDAKMKRLESKYAPLHLVPLIERLGTPQQIAIAREGDLLTKERLCCGLSMFEVILTRIRSFLDDPIWRGPLPSNGVMHVDECVEFHRLWSAMQFVYCIPVGTHEFTVEQCFGDGLHWAGCMIIVLLGQQRRFAVLDFCYHLLKVQKHDGKDEIIKNVPLKKMVERIRKFQILNDEIITILDKYLKSGDGEGTPVEHVRCFQPPIHQSLASS

In the test the parent is B1. The settings on record: with if4e_human EIF4E.
As for D724A;R726A, the “effect of a mutation on the interaction” value is listed as “decreasing interaction”.
For K725E the value was “decreasing interaction”.
